Assay results reported in publication PMC10349882, “High resolution structures define divergent and convergent mechanisms of archaeal proteasome activation” (Communications Biology, 2023).

B1: T20S α subunit, wild type (natural protein, Thermoplasma acidophilum)
chain: MQQGQMAYDRAITVFSPDGRLFQVEYAREAVKKGSTALGMKFANGVLLISDKKVRSRLIEQNSIEKIQLIDDYVAAVTSGLVADARVLVDFARISAQQEKVTYGSLVNIENLVKRVADQMQQYTQYGGVRPYGVSLIFAGIDQIGPRLFDCDPAGTINEYKATAIGSGKDAVVSFLEREYKENLPEKEAVTLGIKALKSSLEEGEELKAPEIASITVGNKYRIYDQEEVKKFL
notes: Proteasome subunit alpha, Thermoplasma acidophilum; Subunit of m1, written alone for the subunit-subunit rows of the structures; also called proteasome α-subunit
B2: T20S α subunit L81Y (natural protein, Thermoplasma acidophilum)
chain: MQQGQMAYDRAITVFSPDGRLFQVEYAREAVKKGSTALGMKFANGVLLISDKKVRSRLIEQNSIEKIQLIDDYVAAVTSGYVADARVLVDFARISAQQEKVTYGSLVNIENLVKRVADQMQQYTQYGGVRPYGVSLIFAGIDQIGPRLFDCDPAGTINEYKATAIGSGKDAVVSFLEREYKENLPEKEAVTLGIKALKSSLEEGEELKAPEIASITVGNKYRIYDQEEVKKFL
notes: Proteasome subunit alpha, Thermoplasma acidophilum; α subunit of the mutant 20S whose cryo-EM structure is solved here; also called T20S-αL81Y; T20S L81Y

Columns and labels:
[1] = target: the molecule itself; experiment: cryo-EM structure; WT T20S, 0.5 mg/mL in 50 mM Tris pH 7.4, 150 mM NaCl; D7 symmetry; closed gate
[2] = target: the molecule itself; experiment: cryo-EM structure; T20S-αL81Y, 0.5 mg/mL in 50 mM Tris pH 7.4, 150 mM NaCl; D7 symmetry; partially open gate
T20S α subunit L81Y = target: B2; experiment: as above; conditions: both partners purified
[3] = target: B1; experiment: cryo-EM structure; WT T20S, 0.5 mg/mL in 50 mM Tris pH 7.4, 150 mM NaCl; D7 symmetry; closed gate; conditions: both partners purified

## B1
[1]
  binding result: binds

## B2
[2]
  binding result: binds

B3: T20S β subunit (natural protein, Thermoplasma acidophilum, UniProt P28061 9-211, looked up)
chain: TTTVGITLKDAVIMATERRVTMENFIMHKNGKKLFQIDTYTGMTIAGLVGDAQVLVRYMKAELELYRLQRRVNMPIEAVATLLSNMLNQVKYMPYMVQLLVGGIDTAPHVFSIDAAGGSVEDIYASTGSGSPFVYGVLESQYSEKMTVDEGVDLVIRAISAAKQRDSASGGMIDVAVITRKDGYVQLPTDQIESRIRKLGLIL
notes: Proteasome subunit beta, Thermoplasma acidophilum; Subunit of m1, written alone for the subunit-subunit rows of the structures
T20S α subunit L81Y
  binding result: binds
[2]
  binding result: binds
[3]
  binding result: binds
